Data reported in paper PMC9757060 (Nucleic Acids Research, 2022).
Where a chain is given by its changes, count along the chain named. Numbers in names are those of the source.

T1: mouse UHRF1 PHD finger (residues 304–372) L337A (mouse, UniProt Q8VDF2 304-372, L337A)
T1 sequence (looked up): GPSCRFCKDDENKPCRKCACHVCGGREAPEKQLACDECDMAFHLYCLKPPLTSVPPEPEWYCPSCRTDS

T2: mouse UHRF1 PHD finger (residues 304–372) (mouse, UniProt Q8VDF2 304-372)
T2 sequence (looked up): T1 sequence (looked up) with A34L

B1: mDPPA3 residues 76–127 followed by an additional Trp (mDPPA3 76–128W) (domain or fragment, mouse)
chain: RREVQSAFPKRRVRTLLSVLKDPIAKMRRLVRIEQRQKRLEGNEFERDSEPFW
B2: mDPPA3 76–128W L91A/V94A (domain or fragment, mouse)
chain: B1 chain with L16A, V19A
B3: mDPPA3 76–128W R89A (domain or fragment, mouse)
chain: B1 chain with R14A
B4: mDPPA3 76–128W R104A (domain or fragment, mouse)
chain: B1 chain with R29A
B5: mDPPA3 residues 85–118 (peptide, UniProt Q8QZY3 85-118, looked up)
chain: KRRVRTLLSVLKDPIAKMRRLVRIEQRQKRLEGN

Key:
Experiment in all cases: ITC
[1] = target: mouse UHRF1 PHD finger (residues 304–372) (mouse) (UniProt Q8VDF2)
[2] = target: T1, mouse UHRF1 PHD finger (residues …)
[3] = target: T2, mouse UHRF1 PHD finger (residues …)

Row | Molecule | Kd [3] [nM] | further results
1 | N-terminal tail of PAF15 (PCNA-associated factor 15) (peptide) |  | Kd [1]: 3520 nM
2 | B1 | 27.7 | Kd [2]: > 43000 nM
3 | B2 | 1080 | 
4 | B3 | 361 | 
5 | B4 |  | binding result [3]: binds
6 | B5 | 45 | 
